# Experimental data reported in the nanobody polyreactivity screen of Harvey et al. (2022).
# Assay: yeast display, Sf9 membrane polyspecificity reagent, FACS + sequencing; frameworks hold sequencing errors
# Procedure, shortened: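 Using colony PCR, genes from sorted yeast display clones were amplified, then sequenced on MiSeq at 2 × 250 and filtered by CDR length. The clones had been stained with 10% biotinylated, detergent-solubilized Sf9 membrane reagent for 1 hour at 4 °C and sorted by FACS into low and high (top ~1%) gates on anti-HA and streptavidin fluorescence. Polyreactivity labels come from the gate of origin.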
row,Sequence,polyreactivity (PSR sort gate)
1,QVQLVESGGGLVQAGGSLRLSCAASGSNFVYNAMGWYRQAPGKERELVAVINKSGDTTYYADSVKGRFTISRDNAKNTVYLQMNSLKPEDTAVYYCNASGEVLAAVVTYDYWGQGTQVTVSS,low polyreactivity
2,QVQLVESGGGLVQAGGSLRLSCAASGFISGYYTMRWYRQAPGKERELVAVINSGGSTYYADSVKGRFTISRDNAKNTVYFQMNSLKPEDTAVYYCAKLGGKYSRYYYWGHGTQVTVSS,low polyreactivity
3,QVQLVESGGGLVQAGGSLRLSCAASGSTFRYYAMGWYRQAPGKERELVASITWSGGSTYYADSVKGRFTISRDNAKNTVYLQMNSLKPEDTAVYYCAARQYIGSPPHRRRFDYWGQGTQVTVSS,high polyreactivity
4,QVQLVESGGGLVQAGGSLRLSCAASGLTLYRNAMGWYRQAPGKERELVATINFSGGSKYYADSVKGRFTISRDNAKNTVYLQMNSLKPEDTAVYFCNARGYWHYSPTKFDYWGQGTQVTVSS,low polyreactivity
5,QVQLVESGGGLVQAGGSLRLSCAASGGIFYYYAMGWYRQAPGKERELVATISNGGSTYYADSVKGRFTISRDNAKNTVYLQMNSLKPEDTAVYYCAADSSSDQYRYFPFDHWGQGTQVTVSS,high polyreactivity
6,QVQLVESGGGLVQAGGSLRLSCAASGFIFVPYAMGWYRQAPGKERELVASITYTGGSTYYADSVKGRFTISRDNAKNTVYLQMNSLKPEDTAVYYCASRYQYWRLHMDYWGQGTPVTVSS,low polyreactivity
7,QVQLVESGGGLVQAGGSLRISCAASGFTFSAYAMGWYRQAPGKERELVAAISGSGGRTYYADSVKGRFTISRDNAKNTVYLQMNSLKPEDTAVYYCATSTAGGRETVSQYRYYWGHGTQVTVSS,high polyreactivity
8,QVQLVESGGGLVQAGGSLRLSCAASGFTFSNYTMGWYRQAPGKERELVAAIRSSGGRTYYADSVKGRFTISRDNAKNTVYLQMDSLKPEDTAVYYCNAEYRTDGGYWVQGTQVTVSS,low polyreactivity
9,QVPLVESGGGLVQAGGSLRLSCAASGSTFSGYAMGWYRQAPGKERELVATITSTGSTNYADSVKGRFTISRDNAKNTVYLQMNSLKPEDTAVYYCNARYLFVERYFLHYASVRYDYWGQGTQVTVST,low polyreactivity
10,QVQLVESGGGLVQAGGSLRLSCAASGNIFRNNAMGWYRQAPGKERELVAAISRGGSTYYADSVKGRFTISRDNAKNTVYLQMNSLKPEDTAVYYCNKYSSRAYNYWGQGTQVTVSS,high polyreactivity
11,QVQLVESGGGLVQAGGSLRLSCAASGSTFRRNAMGWYRQSPGKERELVAAISWRGGSTYYADSVKGRFTISRDYAKNTVYLQMNSLKPEDTAVYYCNTYHPYWGSGFDYWGQGTQVTVSS,low polyreactivity
12,QVQLQESGGGLVQAGGSLCLSCAASGTIIFDGDMGWYRQAPGKEREFVAAINPGGSAYYADSVKGRLPLAAITHTVYLQMNCLKPEDTAVYYCAAKLFDVYGYYYWGQGTHVTVSS,low polyreactivity
13,QVQLVESGGGLVQAGGSLRLSCAASGSIFSRNAMGWYRQAPGKERELVASMSWRGGSTNYADSVKGRFTISRDNAKNTVYLQMNSLKPEDTAVYYCNAPYRHQPGGGYWGQGTQVTVSS,low polyreactivity
14,QVQLVESGGGLVQAGGSLRLSCAASGSTFGYYTMGWYRQAHGKERELVAAISWGCGSTYYADSVKGRFTISRDNAKNTVYLQMNSLIPEDTAVYYCARTPVTSYKDDFYYWGQGTQVTVSS,low polyreactivity
15,QVQLVESGGGLVQAGGSLRLSCAASGSTLVSNAMGGYRQAAGKERELVAAITSGGSTYYADSVKGRFTISRDNAKNTVYLQMNSRKPEDTAVYYCNADRTRGYQRYDYWGQGTQVTVSS,high polyreactivity
16,QVQLVESGGGLVQAGGSLRLSCAASGFIFSTYAMGWYRQAPGKERELVAAITTSGSSTYYADSVKGRFTISRDNAKNTVYLQMNSLKPEDTAVYYCNAKYGYSAATDRGNYWGQGTQVTVSS,high polyreactivity
17,QVQLVESGGGLVQAGGSLRLSCAASGLIFNNYAMGWYRQAPGKERELVATISRTGTSTYYADSVKGRFTISRDNAKNTVYLQMNSLKPEDTAVYYCNAVIQLFEWGWDDEYDYWGQGTQVTVSS,low polyreactivity
18,QVQLVESGGGLVQAGGSLRLSCAASGITFRYYAKGWYRQAPGKERELVAAISRAGSTNYADSVKGRFTISRDNAKNTVYLQMNSLKPVDTAVYSCNARRRSTNAVSYRYITPYDYWGQGTQVTVSS,high polyreactivity
19,QVQLVESGGGLVQAGGSLRLSCAASGLIFYRYAMGTTRQAPGKERELVATISGGGRTYYADSVKGRFTISRDNAKNTVYLQMNSLKPEDTAVYYCNADRQWYSIGSWEYDYWGQGTQVTVSS,high polyreactivity
20,QVRLVESGGGLVQAGGSLRLSCAASGSTFYPYDMGWYRQAPGKERELVATISSGVSTNYADSVKGRFTISRDNAKNTVYLQMNSLKPEDTAVYYCAVDYFIGDDDYWGQGTQVTVSS,low polyreactivity
21,QVQLVESGGGLVQAGGSLRLSCAASGFTFSSYAMGWYRQAPGKERELDAAITRNGGSTYYADSVKGRFTISRDNAKNTDYLQMNSLNPEYTAVYNCAAQYPRQRYGYYWPYYKYYYWGHGTQVTVSS,high polyreactivity
22,QVQLVESGGGLVQAGGSLRLSCAASGFIFRRNAMGWYRQAPGKERELVAAISRSGGRTYYADSVKGRFTISRDNAKNTVYLQMNSLKPEDTAVYYCAAEYTDKYEYWGQGTQVTVSS,high polyreactivity

row,Sequence,polyreactivity (PSR sort gate)
1,QVQLVESGGGLVQAGGSLRLSCAASGRIFPYYDMGWYRQAPGKERELVAAITSSGSTFYADSVKGRFTISRDNAKNTVYLQMNSLKPEDTAVYYCNTRDIRVRPYDYWGQGTQVTVSS,low polyreactivity
2,QVQLVESGGGLVQAGGSLRLSSAASGSTFDYYALGWYSQARGKERELVAAISTSGSSTYYADSVKGRFTISRDNAKNTVYLQMNSLKPVDTAVYYCAAPIRYKGGYWGQGTQVTVSS,low polyreactivity
3,QVQLVESGGGLVQAGGSLRLSCAASGRIFGWYAMGWYRQAPGKERELVAAISWSGGSTYADSVKGRFTISRDNAKNTVYLQMNSLKPEDTAVYYCAADVAYVEYDYWGQGTQVTVSS,low polyreactivity
4,QVQLVESGGGLVQAGGSLRLSCAASGIILTQNAMGWYRQAPGKERELVAAITESGARTYYADSVKGRFTISRDNAKNTVYLQMNSLKPEDTAVYYCNAYRYYRGQVYPFYYWGQGTQVTVSS,low polyreactivity
5,QVQLVESGGGLVQAGGSLRLSCAASGFIFRGNAMGWYRQAPGKERELVAAISRRGGTTYYADSVKGRFTISRDNAKNTVYLQMNSLKPEDTAVYYCAKLVVVPFYYWGQGTQVTVSS,high polyreactivity
6,QVQLVESGGGLVQAGGSLRLICAASGTFTSNAMGWYRQAPGKERELVAVITSTDSTNYADSVKGRFTISRDNAKNTVYLPLNSLKPEDTAVYYCAGSKYTVVQQYWDVLFDYWGQGTQVTVSS,low polyreactivity
7,QVQLGESGGGLVQAGGSLRLSCAASGFIFPIYAMGWYIKSPVTERELVAVISGSGGSTYYADSVKGRFTISRDNAKNTVYLLMNSLKPEDTAVYYCAALGRNVAVYKGGYWGQGNQVTVSS,low polyreactivity
8,QVQLVESGGGLVQAGGSLRLSCAASGTTFVIYAKGWYRQAPGKERELVASISGSGGSTFYADSVKGRFTISRDNAKITVYLQMNSLKPEDTAVYYCAAAVGVGRSGGTYDYWGQGTQVTVSS,low polyreactivity
9,QVQLVESGGGLVQAGGSLRLSCAASGFIFPANAMGWSRQAPGKEREFVAAISRSGGTTYYADSVKGRFTISRDHAKNTVYLQMNSLKPEDTAVYYCAARYAIGPGYDYWGQGTQVTVSS,high polyreactivity
10,QVQLVESGGGLVQAGGSLRLSCAASGSIFRFNAMGWYRQAPGKERELVAAISASGGSTYYADSVKGRFTISRDNAKNTVYLQMNSLKPEDTAVYYCAARRTAGAYYGYNYWGQGTQVTVSS,high polyreactivity
11,QVQLVDSGGGLVQAGGSLRLSCAASGFTFNGYAMGWSRPAPGKEREFVAAISSSGGSTYYADSVKGRFTISRDNAKNTVYLQMNSLKPDDTAVYYCNAVGWRKKYDYWGQGTQVTVSS,high polyreactivity
12,QVQLVESGGGLVQAGGSLRLSCAASGRGYYAMGWYRQAPGKERELVAAISRGGNTKYADSVKGRFTISRDNAKNTVYLQMNSLKPEDTAVYYCYTDWADYYYYTDYDYWGQGTQVTVSS,high polyreactivity
13,QVQLVESGGGLVQAGGSLRLSCAASGLIFITYAMGWYRQAPGKERELVATITLRGGSTYYADSVKGRFTISRDNAKNTVYLQMNSLKPEDTAVYYCAARYFSYYILRRIYPVREDYWGQGTQVTVSS,low polyreactivity
14,QVQLVESGGGLVQAGGSLRLSCAASGSTFDYYGMGWYRQAPGKERELVAAITTSGGSTYYADSVKGRFTISRDNAKNTVYLQMNSLKPEDTAVYYCAAESYWYGTSPYYYLYEYDYWGQGTQVTVSS,high polyreactivity
15,QVQLVESGGGLVQAGGSLRLICAASGFIITGNAMGWYRQAPGKERELVAAITSGGNTYYADSVKGRFTISRDNAKNTVYLQMISMKPEDTAVYYCAKYGPHWRILMEYWGQGTQVTVSS,low polyreactivity
16,QVQLVESGGGLVQAGGSLRLSCAASGRIFTRYTMGWYRQAPGKESELVAAISRSGGSTYYADSVKGRFTISRDNEKNTVYLQMNSLKPEDTAVYYCAAKGPYTYGYGYWGQGTQVTVSS,high polyreactivity
17,QVQLVESGGGLVQAGGSLRLSCAASGFTFYDNAMGWYRQAPGKERELVAAISWGGGSTYYADSVKGRFTISRDNAKNTVYLQMNSLKPEDTAVYYCNVYYGRVLLGFYYWGQGTQVTVSS,low polyreactivity
18,QVQLVESGGGLVQAGGSLRLSCAASGSIFSRNAMGWYRQAPGKEREFVAAISWSGGRTYYADSVKGRFTISRDNAKNTVYLQMNSLKPEDTAVYYCSKGYSYHWYHVTFYSWGQGTQVTVSS,high polyreactivity
19,HDQRVESGGGLVQAGGSLRLSCAASGITFASYAMGWYRQAPGKDRELVAAISWGGSRTYYADSVKGRFTISRDTAKISVYLQMNSLKPEDTAVYYCNAHTRYGPDYSYYYWGQGTQVTVSS,high polyreactivity
20,QVQLVESGGGLVQAGGSLRLSCAASGRTFASYAMGWYRQAPGKERELVAVITRGGRTYYADSVKGRFTISRDNAKNTVYLQMNSLKPEDTAVYYCNAAYYSSSYLEDSWGQGTQVTVSS,high polyreactivity
21,QVQLVESGGGLVQAGGRLRLSCAASGRIFYYNAMGWYRQAPGKERELVATITGSGGSTYYADSVKGRFTISRDIAKNTVYLQMNSLKPEDTAVYYCAKRIYRYQYRPENYWGQGTQVTVSS,low polyreactivity
